Reference: US20140241987A1

How the values were obtained:
[1] = molecular target: α-synuclein fibrils (human) (UniProt P37840); test: inhibition ELISA, fibrils against monomers
[2] = molecular target: α-synuclein fibrils (human) (UniProt P37840); test: SPR, BIAcore X100, fibrils immobilised on CM5, mAb injected

Row | Substance | Fold Affinity to Fibrils [1] | Kd [2] | koff [2] | kon [2]
1 | Syn-O1 (antibody) | 12700 fold | 16 pM | 9.36e-05 s⁻¹ | 5.86e+06 M⁻¹ s⁻¹
2 | Syn-O2 (antibody) | 27300 fold | 96.9 pM | 0.00127 s⁻¹ | 1.31e+07 M⁻¹ s⁻¹
3 | Syn-O3 (antibody) | 11100 fold | 171 pM | 0.000379 s⁻¹ | 2.22e+06 M⁻¹ s⁻¹
4 | Syn-O4 (antibody) | 6930 fold | 138 pM | 0.000996 s⁻¹ | 7.24e+06 M⁻¹ s⁻¹
